US20050282743A1, “Molecular interactions in cells” (Arbor Vita Corporation, priority 2001, published 2005)

Assays:
[1] = target: GST-KIAA1634 PDZ domain 1 (Homo sapiens (Human)), Q5TCQ9; assay: G assay titration, PDZ 1 ug/ml
[2] = target: T1, GST-Shank 1 PDZ domain 1 (Homo sapiens (Human)), Q9UPX8; assay: G assay titration, PDZ 5 ug/ml
T1 chain: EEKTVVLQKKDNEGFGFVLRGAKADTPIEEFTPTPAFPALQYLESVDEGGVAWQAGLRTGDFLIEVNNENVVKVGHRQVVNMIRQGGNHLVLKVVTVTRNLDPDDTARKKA

[3] = target: T2, GST-Atrophin-1 Interacting Protein PDZ domain 1 (Rattus norvegicus (Rat)), O88382; assay: G assay titration, PDZ 5 ug/ml
T2 sequence (O88382 408-511): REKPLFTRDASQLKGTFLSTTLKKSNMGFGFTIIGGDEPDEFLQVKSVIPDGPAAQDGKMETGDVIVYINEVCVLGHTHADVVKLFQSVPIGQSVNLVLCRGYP

[4] = target: T3, GST-KIAA0807(S) PDZ domain 1 (Homo sapiens (Human)), Q6P0Q8; assay: G' assay; further: key of the grades not given here
T3 chain: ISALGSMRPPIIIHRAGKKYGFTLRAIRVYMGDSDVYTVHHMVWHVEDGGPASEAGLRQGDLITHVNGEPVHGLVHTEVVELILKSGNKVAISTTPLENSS

[5] = target: T4, GST-Shank 3 PDZ domain 1 (human (hypothetical, computer cloned)), Q9BYB0; assay: G' assay; further: key of the grades not given here
T4 chain: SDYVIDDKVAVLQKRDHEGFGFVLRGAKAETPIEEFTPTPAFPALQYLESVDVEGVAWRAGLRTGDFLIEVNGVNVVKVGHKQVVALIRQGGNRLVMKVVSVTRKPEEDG

[6] = target: T5, GST-EZRIN Binding Protein 50 PDZ domain 2 (Homo sapiens (Human)), O14745; assay: G' assay; further: key of the grades not given here
T5 chain: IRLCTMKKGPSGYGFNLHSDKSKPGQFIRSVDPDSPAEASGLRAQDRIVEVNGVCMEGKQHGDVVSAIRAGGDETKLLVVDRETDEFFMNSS

[7] = target: GST-KIAA807 [GST: P08515]; assay: G' assay; further: key of the grades not given here
GST-KIAA807 [GST: P08515], sequence (P08515 whole entry, the tested form may be a part): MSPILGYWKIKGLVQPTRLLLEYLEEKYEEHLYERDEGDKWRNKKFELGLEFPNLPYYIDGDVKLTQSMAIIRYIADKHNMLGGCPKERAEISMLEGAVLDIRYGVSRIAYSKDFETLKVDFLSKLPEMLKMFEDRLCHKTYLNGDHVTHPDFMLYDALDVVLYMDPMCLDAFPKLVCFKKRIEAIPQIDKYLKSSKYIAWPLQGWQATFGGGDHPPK

[8] = target: T6, GST-PTPL1 PDZ domain 4 (Homo sapiens (Human)), Q12923; assay: G' assay; further: key of the grades not given here
T6 chain: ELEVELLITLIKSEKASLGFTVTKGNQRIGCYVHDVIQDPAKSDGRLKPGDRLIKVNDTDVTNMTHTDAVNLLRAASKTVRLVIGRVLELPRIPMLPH

[9] = target: T7, GST-PTPL1 PDZ domain 2 (Homo sapiens (Human)), Q12923; assay: G' assay; further: key of the grades not given here
T7 chain: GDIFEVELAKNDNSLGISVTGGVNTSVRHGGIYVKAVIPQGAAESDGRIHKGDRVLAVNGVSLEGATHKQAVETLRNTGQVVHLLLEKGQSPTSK

[10] = target: T1, GST-Shank 1 PDZ domain 1 (Homo sapiens …); assay: G' assay; further: key of the grades not given here
[11] = target: GST-PSD95 PDZ domains 1, 2, 3 (Homo sapiens), P78352; assay: G' assay; further: key of the grades not given here
GST-PSD95 PDZ domains 1, 2, 3 (Homo sapiens), P78352, sequence (P78352 62-395): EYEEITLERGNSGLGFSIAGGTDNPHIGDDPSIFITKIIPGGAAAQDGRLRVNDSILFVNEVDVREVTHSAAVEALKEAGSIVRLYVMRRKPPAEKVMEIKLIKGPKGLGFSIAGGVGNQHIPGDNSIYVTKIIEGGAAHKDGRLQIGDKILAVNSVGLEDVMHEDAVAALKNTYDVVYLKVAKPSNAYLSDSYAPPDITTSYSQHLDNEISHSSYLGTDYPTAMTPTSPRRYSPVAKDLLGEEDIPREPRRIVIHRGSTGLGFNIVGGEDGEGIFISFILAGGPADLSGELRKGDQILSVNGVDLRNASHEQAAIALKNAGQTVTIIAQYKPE

[12] = target: T8, GST-FLJ 10324 PDZ domain 1 [GST: P08515]; assay: G' assay; further: key of the grades not given here
T8 chain: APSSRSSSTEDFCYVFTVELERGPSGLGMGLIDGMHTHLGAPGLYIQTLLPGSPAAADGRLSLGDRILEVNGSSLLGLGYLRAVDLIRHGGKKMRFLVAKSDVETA

[13] = target: T9, GST-TIP1 PDZ domain 1 (Table 9 insert) (Homo sapiens (Human)), O14907; assay: G' assay; further: key of the grades not given here
T9 chain: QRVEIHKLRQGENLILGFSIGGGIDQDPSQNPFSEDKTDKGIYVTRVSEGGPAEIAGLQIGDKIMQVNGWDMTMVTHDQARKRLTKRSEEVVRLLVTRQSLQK

[14] = target: GST-DLG1 PDZ domains 1, 2 (Homo sapiens), Q12959; assay: G' assay; further: key of the grades not given here
[15] = target: T10, GST-MINT1 PDZ domains 1, 2, Q02410; assay: G' assay; further: key of the grades not given here
T10 chain: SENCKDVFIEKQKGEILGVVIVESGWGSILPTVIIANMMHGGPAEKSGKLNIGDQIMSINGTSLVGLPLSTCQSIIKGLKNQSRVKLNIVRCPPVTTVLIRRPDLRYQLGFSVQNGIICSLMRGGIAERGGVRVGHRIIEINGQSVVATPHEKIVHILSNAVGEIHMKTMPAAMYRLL

[16] = target: T2, GST-Atrophin-1 Interacting Protein PDZ …; assay: G' assay; further: key of the grades not given here
[17] = target: T11, GST-INADL PDZ domain 8 (Homo sapiens (Human)), Q8NI35; assay: G' assay; further: key of the grades not given here
T11 chain: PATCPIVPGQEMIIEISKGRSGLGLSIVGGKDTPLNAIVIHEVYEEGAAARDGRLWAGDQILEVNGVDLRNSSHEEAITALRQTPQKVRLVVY

[18] = target: GST-KIAA1634 PDZ domain 1 (Homo sapiens (Human)), Q5TCQ9; assay: G' assay; further: key of the grades not given here
[19] = target: T12, GST-ZO-1 PDZ domain 1 (Rattus norvegicus (Rat)), A0A0G2; assay: G' assay; further: key of the grades not given here
T12 chain: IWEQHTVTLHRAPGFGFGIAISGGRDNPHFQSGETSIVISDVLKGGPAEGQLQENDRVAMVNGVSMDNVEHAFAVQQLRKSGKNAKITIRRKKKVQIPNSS

[20] = target: T13, GST-NeDLG PDZ domains 1, 2, Q92796; assay: G' assay; further: key of the grades not given here
T13 chain: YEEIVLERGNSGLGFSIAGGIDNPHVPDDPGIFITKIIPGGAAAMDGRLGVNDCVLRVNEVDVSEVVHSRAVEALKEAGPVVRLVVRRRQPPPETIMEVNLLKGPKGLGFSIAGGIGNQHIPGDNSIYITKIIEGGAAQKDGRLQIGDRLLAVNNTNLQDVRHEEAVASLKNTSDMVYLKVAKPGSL

[21] = target: T14, GST-KIAA1634 PDZ domain 2 (Homo sapiens (Human)), Q5TCQ9; assay: G' assay; further: key of the grades not given here
T14 chain: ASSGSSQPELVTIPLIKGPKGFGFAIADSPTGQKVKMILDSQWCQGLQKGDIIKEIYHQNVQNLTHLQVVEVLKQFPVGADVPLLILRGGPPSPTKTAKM

[22] = target: T15, GST-EZRIN Binding Protein 50 PDZ domain 1 (Homo sapiens (Human)), O14745; assay: G' assay; further: key of the grades not given here
T15 chain: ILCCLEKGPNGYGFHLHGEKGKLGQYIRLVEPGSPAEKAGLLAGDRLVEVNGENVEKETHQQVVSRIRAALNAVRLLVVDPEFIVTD

[23] = target: T16, GST-NOS1 PDZ domain 1 (Homo sapiens (Human)), P29475; assay: G' assay; settings: remark: other sources report otherwise; further: key of the grades not given here
T16 chain: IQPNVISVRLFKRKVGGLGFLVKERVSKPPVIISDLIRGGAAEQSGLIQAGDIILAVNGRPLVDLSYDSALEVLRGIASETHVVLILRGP

[24] = target: T17, GST-NeDLG PDZ domain 3 (Mus musculus (Mouse)), P70175; assay: G' assay; further: key of the grades not given here
T17 chain: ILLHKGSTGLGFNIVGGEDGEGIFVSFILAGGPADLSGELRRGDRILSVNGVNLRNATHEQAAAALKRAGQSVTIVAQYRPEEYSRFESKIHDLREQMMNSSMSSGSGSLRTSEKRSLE

[25] = target: GST-TAX IP2 PDZ domain 1 [GST: P08515]; assay: G assay titration, PDZ 1 ug/ml
GST-TAX IP2 PDZ domain 1 [GST: P08515], sequence (P08515 whole entry, the tested form may be a part): as the sequence (P08515 whole entry, the tested form may be a part) above

[26] = target: GST-TAX IP2 PDZ domain 1 [GST: P08515]; assay: G' assay
[27] = target: T7, GST-PTPL1 PDZ domain 2 (Homo sapiens …); assay: G assay titration, PDZ 1 ug/ml
[28] = target: T18, GST-AIPC PDZ domain 1 (Homo sapiens (Human)), O15018; assay: G' assay; further: key of the grades not given here
T18 chain: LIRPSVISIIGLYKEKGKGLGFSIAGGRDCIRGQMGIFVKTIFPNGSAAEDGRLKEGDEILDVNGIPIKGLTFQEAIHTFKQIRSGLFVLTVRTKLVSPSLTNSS

[29] = target: T19, GST-FLJ00011 PDZ domain 1 (Homo sapiens (Human)), Q9H5P4; assay: G' assay; further: key of the grades not given here
T19 chain: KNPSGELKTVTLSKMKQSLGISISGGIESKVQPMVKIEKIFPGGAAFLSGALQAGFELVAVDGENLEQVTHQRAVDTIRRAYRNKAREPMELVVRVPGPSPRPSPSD

[30] = target: GST-BAI-1 Associated Protein PDZ domain 3 (Homo sapiens (Human)), Q96QZ7; assay: G' assay; further: key of the grades not given here
GST-BAI-1 Associated Protein PDZ domain 3 (Homo sapiens (Human)), Q96QZ7, sequence (Q96QZ7 other isoform, or with tags, fused parts or gaps): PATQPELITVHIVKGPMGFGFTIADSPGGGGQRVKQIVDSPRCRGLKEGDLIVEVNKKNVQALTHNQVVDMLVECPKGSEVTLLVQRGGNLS

[31] = target: T20, GST-MUPP1 PDZ domain 13 (Homo sapiens (Human)), O75970; assay: G' assay; further: key of the grades not given here
T20 chain: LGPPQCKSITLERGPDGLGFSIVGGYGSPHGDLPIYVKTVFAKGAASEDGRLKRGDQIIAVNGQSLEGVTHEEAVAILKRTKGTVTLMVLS

[32] = target: T21, GST-MINT1 PDZ domain 2 (Mus musculus (Mouse)), B2RUJ5; assay: G' assay; further: key of the grades not given here
T21 chain: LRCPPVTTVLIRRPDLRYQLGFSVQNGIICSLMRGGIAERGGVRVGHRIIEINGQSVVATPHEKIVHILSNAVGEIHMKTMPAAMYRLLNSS

[33] = target: GST-PIST PDZ domain 1 (Mus musculus (Mouse)), Q8BH60; assay: G' assay; further: key of the grades not given here
[34] = target: T22, GST-GRIP 1 PDZ domain 3 (Homo sapiens (Human)), Q9Y3R0; assay: G' assay; further: key of the grades not given here
T22 chain: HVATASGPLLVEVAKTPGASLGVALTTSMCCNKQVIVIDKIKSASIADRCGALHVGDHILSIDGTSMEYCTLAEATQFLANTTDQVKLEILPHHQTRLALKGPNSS

[35] = target: GST-Atrophin-1 Interacting Protein PDZ domain 5 (Rattus norvegicus (Rat)), O88382; assay: G' assay; further: key of the grades not given here
GST-Atrophin-1 Interacting Protein PDZ domain 5 (Rattus norvegicus (Rat)), O88382, sequence (O88382 1128-1225): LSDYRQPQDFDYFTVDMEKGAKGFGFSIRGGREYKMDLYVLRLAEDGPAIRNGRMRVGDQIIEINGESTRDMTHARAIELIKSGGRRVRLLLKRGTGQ

[36] = target: T23, GST-Syntrophin gamma 1 PDZ domain 1 (Homo sapiens (Human)), Q9NSN8; assay: G' assay; further: key of the grades not given here
T23 chain: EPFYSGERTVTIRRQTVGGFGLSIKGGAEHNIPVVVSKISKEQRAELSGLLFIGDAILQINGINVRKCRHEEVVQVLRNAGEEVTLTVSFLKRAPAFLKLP

[37] = target: T24, GST-HEMBA 1003117 PDZ domain 1 (Homo sapiens (Human)), Q96JH8; assay: G' assay; further: key of the grades not given here
T24 chain: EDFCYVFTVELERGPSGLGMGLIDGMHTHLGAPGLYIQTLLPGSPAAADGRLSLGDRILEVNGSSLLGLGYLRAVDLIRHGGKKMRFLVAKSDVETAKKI

[38] = target: T3, GST-KIAA0807(S) PDZ domain 1 (Homo …); assay: G assay titration, PDZ 0.5 ug/ml

GST-KIAA1634 PDZ domain 1 (Homo sapiens (Human)), Q5TCQ9, sequence (Q5TCQ9 401-502): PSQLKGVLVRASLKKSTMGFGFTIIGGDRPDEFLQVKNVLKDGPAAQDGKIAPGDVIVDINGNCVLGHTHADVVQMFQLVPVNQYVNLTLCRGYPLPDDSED

B1: Neuroligin (peptide)
peptide: TFAAGFNSTGLPHSTTRV
modifications: not checked
B1 gave a Kd [1] of 100 nM, a Kd [2] of 300 nM and a Kd [3] of 250 nM. It also gave a Classification [4] of 3 A450 class, a Classification [5] of 3 A450 class and a Classification [6] of 1 A450 class. The Classification [7] was 3 A450 class, the Classification [8] was 1 A450 class and the Classification [9] was 1 A450 class. For the same binder, the Classification [10] was 2 A450 class, the Classification [11] was 2 A450 class and the Classification [12] was 1 A450 class. The Classification [13] was 1 A450 class, the Classification [14] was 2 A450 class and the Classification [15] was 1 A450 class. The Classification [16] was 2 A450 class, the Classification [17] was 1 A450 class and the Classification [18] was 4 A450 class. For the same binder, the Classification [19] was 1 A450 class, the Classification [20] was 1 A450 class and the Classification [21] was 2 A450 class. It also gave a Classification [22] of 2 A450 class, a Classification [23] of 1 A450 class and a Classification [24] of 1 A450 class.

B2: AKT1 (peptide)
peptide: VDSERRPHFPQFSYSASSTA
modifications: not checked
Work on B2 yielded a Kd [25] of 2500 nM, a Classification [4] of 1 A450 class and a Classification [7] of 1 A450 class. It also gave a Classification [26] of 4 A450 class.

B3: PTEN (peptide)
peptide: DSDPENEPFDEDQHTQITKV
modifications: not checked
B3 showed a Kd [27] of 300 nM, a Kd [2] of 1500 nM and a Classification [4] of 5 A450 class. For the same binder, the Classification [28] was 1 A450 class, the Classification [29] was 3 A450 class and the Classification [30] was 2 A450 class. The Classification [7] was 5 A450 class, the Classification [8] was 1 A450 class and the Classification [31] was 5 A450 class. For the same binder, the Classification [9] was 4 A450 class, the Classification [10] was 3 A450 class and the Classification [12] was 1 A450 class. It also gave a Classification [13] of 2 A450 class, a Classification [32] of 1 A450 class and a Classification [33] of 1 A450 class. It also gave a Classification [15] of 1 A450 class, a Classification [17] of 1 A450 class and a Classification [34] of 1 A450 class. For the same binder, the Classification [35] was 2 A450 class, the Classification [21] was 5 A450 class and the Classification [36] was 1 A450 class. For the same binder, the Classification [37] was 1 A450 class and the Kd [38] was 300 nM.
